We go through six molecules from patent publication US20220073565A1 (University of Washington, published 2022).

Assay [1] deals with T1, Bcl2 (UniProt P10415 1-207, limits assumed, biotinylated).
T1 construct: Loaded on streptavidin biosensors; also called biotinylated Bcl2
Description: bio-layer interferometry, Bcl2 immobilised, 250 nM BimLOCKR with and without key. The protocol:
The range of key concentrations over which BimLOCKR is activated can be controlled by tuning KCK by varying the length of the key since the interaction energy is roughly proportional to the total surface area of interacting residues. […] Truncating an additional five residues completely negates key activation, indicating the equilibria are very sensitive to small changes in free energy as expected from our model (FIG. 2d). […] Bio-layer interferometry experiments were performed with target immobilized assayed against the switch with or without key in solution, as well as with key immobilized and assayed against the switch alone or with target in solution. […] This fit has an RMSE (root-mean-square-error) of 0.072 nm to the observed BLI data.
BLI measurements were made on an Octet® RED96 System (ForteBio) with streptavidin (SA) coated biosensors and all analysis was performed within ForteBio Data Analysis Software version 9.0.0.10. Assays were performed with protein diluted into HBS-EP+ Buffer from GE (10 mM HEPES, 150 mM NaCl, 3 mM EDTA, 0.05% v/v Surfactant P20, 0.5% non-fat dry milk, pH7.4 at room temperature). Biotinylated Bcl2 was loaded onto the SA tips to a threshold of 0.5 nm programmed into the machine's protocol.
(Biolayer interferometry detects binding as a change in optical thickness at a sensor tip.)

Assay [2] deals with T2, BclB (UniProt Q9HD36 11-178, limits assumed).
T2 construct: also called Bcl2 homolog BclB
T2 sequence (looked up): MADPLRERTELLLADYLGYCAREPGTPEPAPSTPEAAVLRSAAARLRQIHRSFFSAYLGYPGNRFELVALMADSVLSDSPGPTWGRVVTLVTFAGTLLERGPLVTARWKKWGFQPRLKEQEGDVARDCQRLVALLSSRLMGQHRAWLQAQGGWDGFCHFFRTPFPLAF
Put plainly: global fit of the thermodynamic model to bio-layer interferometry data (target or key immobilised).

Assay [3] addresses T1, Bcl2. The assay is described as above.
Assay [4] deals with dCas9-VP64-RFP-degronSwitcha. Description: cell-based or functional assay.
The target in assay [5] is T3, YFP-degronSwitcha.
T3 sequence: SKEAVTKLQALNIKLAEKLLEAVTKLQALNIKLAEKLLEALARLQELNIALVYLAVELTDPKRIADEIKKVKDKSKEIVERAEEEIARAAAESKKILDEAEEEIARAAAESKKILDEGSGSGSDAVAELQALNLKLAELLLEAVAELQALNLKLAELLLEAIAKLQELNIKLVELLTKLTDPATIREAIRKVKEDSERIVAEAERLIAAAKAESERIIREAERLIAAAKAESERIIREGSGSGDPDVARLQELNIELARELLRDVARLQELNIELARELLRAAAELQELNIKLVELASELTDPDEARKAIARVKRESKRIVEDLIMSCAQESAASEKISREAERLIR
Description: cell-based or functional assay.

The target of assay [6] is SynTF-RFP-degronSwitcha. Put plainly: cell-based or functional assay.
Assay [7] deals with T1, Bcl2. Put plainly: bio-layer interferometry (Octet), Bcl2 immobilised, switch with nine residue toehold.
For assay [8], the target named is T4, mSin3A-PAH2 domain (UniProt Q60520 300-383, biotin).
T4 construct: domain: PAH2; 0.1 µg immobilised on streptavidin biosensor tips; also called Biotin-mSin3A-PAH2; PAH2 domain of the mSin3A transcriptional repressor
T4 sequence (looked up): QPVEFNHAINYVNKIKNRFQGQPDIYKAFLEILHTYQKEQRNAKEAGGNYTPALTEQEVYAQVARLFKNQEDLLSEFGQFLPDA
Put plainly: bio-layer interferometry, Biotin-mSin3A-PAH2 on streptavidin tips. From the text:
FIG. 12a-d: Designed Mad1-SID LOCKR switches for key-dependent transcriptional repression. FIG. 12a. Crystal structure of the interaction between Mad1-SID domain (white) and the PAH2 domain of the mSin3A transcriptional repressor (black) (PDB ID: 1E91). Caging of the Mad1-SID domain should enable key-dependent recruitment of the transcriptional repressor mSin3A enabling precise epigenetic regulation. FIG. 12b. Designed Mad1-LOCKR switches, with Cage component encoding the Mad1-SID sequence at different positions (dark gray). FIG. 12c. SDS-PAGE gel showing successfully purified 1fix302Mad1 (1) , 1fix_309_Mad1 (2) and MBP_Mad1 (3). FIG. 12d. Biolayer interferometry analysis of key-activated binding of the Mad1-LOCKR switches to the purified rnSin3A-PAH2 domain. MBP-Mad1 is a positive control for mSin3a-PAH2 binding. […] Kinetic assays were performed by immobilizing 0.1μg of Biotin-mSin3A-PAH2 protein on Streptavidin biosensor tips (ForteBio). Protein cages were tested at 50 nM in presence or absence of 500 nM Keyₐ.

No end group written: not given here.

T1 sequence (P10415 1-207 limits assumed): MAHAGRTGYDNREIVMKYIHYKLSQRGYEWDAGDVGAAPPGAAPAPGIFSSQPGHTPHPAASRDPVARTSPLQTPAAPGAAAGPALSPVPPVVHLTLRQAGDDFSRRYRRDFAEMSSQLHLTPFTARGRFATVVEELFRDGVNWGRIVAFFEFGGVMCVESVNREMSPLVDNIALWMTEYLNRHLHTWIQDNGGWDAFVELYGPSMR

B1: BimLOCKR (18-residue extension with a 9 residue toehold) (designed binder)
chain: MGSSHHHHHHSSGLVPRGSHMSKEAVTKLQALNIKLAEKLLEAVTKLQALNIKLAEKLLEALARLQELNIALVYLAVELTDPKRIADEIKKVKDKSKEIVERAEEEIARAAAESKKILDEAEEEIARAAAESKKILDEGSGSGSDAVAELQALNLKLAELLLEAVAELQALNLKLAELLLEAIAKLQELNIKLVELLTKLTDPATIREAIRKVKEDSERIVAEAERLIAAAKAESERIIREAERLIAAAKAESERIIREGSGSGDPDVARLQELNIELARELLRDVARLQELNIELARELLRAAAELQELNIKLVELASELTDEIWIAQELRRIGDEFNAYYADAERLIREAAAASEKISREAERLIREAA
notes: the tested form has the latch truncated by nine residues at the C-terminus (toehold); also called BimLOCKRa
For the molecule B1, the “fold activation of binding by the key (with key against without key)” value in assay [1] is around 40 fold. The dissociation constant (Kd) in assay [2] came out at 32 nM; in assay [3] it was 28 nM.

B2: Keya-BFP (designed binder, not shown: large carriers)
chain: EARKAIARVKRESKRIVEDAERLIREAAAASEKISREAERLIREAAAASEKISRE
modifications: also: C-terminal fusion to BFP (mTagBFP2), linker not given here
B2: in assay [4], the reduction of RFP fluorescence upon induction of Key at 31.25 nM E2 was 78% and the reduction of pTet7x-YFP reporter fluorescence upon induction of Key at 31.25 nM E2 was 41%. Further, the reduction of YFP fluorescence (flow cytometry, S. cerevisiae) in assay [5] is below 73%.

B3: Keya-BFP-NLS (designed binder, not shown: large carriers)
chain: EARKAIARVKRESKRIVEDAERLIREAAAASEKISREAERLIREAAAASEKISRE
B3: in assay [6], the reduction of RFP fluorescence at 31.25 nM E2, maximal Key induction stood at 61% and the reduction of pSynTF-YFP reporter fluorescence at 31.25 nM E2, maximal Key induction stood at 82%.

B4: BimLOCKRc (nine residue toehold on the latch) (designed binder)
chain: MGSSHHHHHHSSGLVPRGSHMSLEAVLKLAELNLKLSDKLAEAVQKLAALLNKLLEKLSEALQRLFELNVALVTLAIELTDPKRIADEIKKVKDKSKEIVERAEEEIARAAAESKKILDEAEEEIARAAAESKKILDEGSGSGSDAVAELQALNLKLAELLLEAVAELQALNLKLAELLLEAIAKLQELNIKLVELLTKLTDPATIREAIRKVKEDSERIVAEAERLIAAAKAESERIIREAERLIAAAKAESERIIREGSGSNDPLVARLQELLIEHARELLRLVATSQEIFIELARAFLANAAQLQEAAIKAVEAASENGSGEIWIAQELRRIGDEFNAYYAQNQKLLKDHKRAQEKLNRELEELKKKHKK
notes: Entry is printed with full latch and optional His tag; tested with a nine residue toehold (latch truncated by nine residues)
For B4, the “fold activation of binding by the cognate key (with key against without key)” value in assay [7] was found to be 8 fold.

B5: 1fix_302_Mad1 (designed binder)
chain: MGSHHHHHHGSGSENLYFQGSKEAAKKLQDLNIELARKLLEASTKLQRLNIRLAEALLEAIARLQELNLELVYLAVELTDPKRIRDEIKEVKDKSKEIIRRAEKEIDDAAKESKKILEEARKAIRDAAEESRKILEEGSGSGSDALDELQKLNLELAKLLLKAIAETQDLNLRAAKAFLEAAAKLQELNIRAVELLVKLTDPATIRRALEHAKRRSKEIIDEAERAIRAAKRESERIIEEARRLIEKAKEESERIIREGSGSGDPDIKKLQDLNIELARELLRAHAQLQRLNLELLRELLRALAQLQELNLDLLRLASELTNIQMLLEAADYLERESKRIVEDAERLIREAAAASEKISREAERSIREAAAASEKISRE
notes: Optional His-TEV tag printed in parentheses
With B5, in assay [8], the binding result was “no binding”.

B6: BimLOCKRb (nine residue toehold on the latch) (designed binder)
chain: MGSSHHHHHHSSGLVPRGSHMSHAAVIKLSDLNIRLLDKLLQAVIKLTELNAELNRKLIEALQRLFDLNVALVHLAAELTDPKRIADEIKKVKDKSKEIVERAEEEIARAAAESKKILDEAEEEIARAAAESKKILDEGSGSGSDAVAELQALNLKLAELLLEAVAELQALNLKLAELLLEAIAKLQELNIKLVELLTKLTDPATIREAIRKVKEDSERIVAEAERLIAAAKAESERIIREAERLIAAAKAESERIIREGSGSNDPQVAQNQETFIELARDALRLVAENQEAFIEVARLTLRAAALAQEVAIKAVEAASEGGSGSGNEIWIAQELRRIGDEFNAYYAEHKEIHDKLRKKNKKAREDLKKKADE
notes: as for B4
Consider B6, for which the “fold activation of binding by the cognate key (with key against without key)” value in assay [7] stood at 22 fold.

As usually defined, the Kd is the constant that tells how readily two partners part at equilibrium.
